Our source for the Km values is paper doi:10.1101/2023.11.26.568713v1.

Broadly, the Km is the substrate concentration at which the rate is half of its maximum.

Substrate in data set [1]: O=CC(=O)O
Briefly: purified protein, by the assay type. The following applies: pH 7.6; 30.0 °C.

Substrate in data set [2]: O=CC(=O)O
Kind of data set: purified protein, by the assay type. Particulars: pH 7.6; 30.0 °C. This is another data set of the same source.

B1: GGT1 (Arabidopsis thaliana) (protein)
chain: MALKALDYDTLNENVKKCQYAVRGELYLRASELQKEGKKIIFTNVGNPHALGQKPLTFPRQVVALCQAPFLLDDPNVGMLFPADAIARAKHYLSLTSGGLGAYSDSRGLPGVRKEVAEFIQRRDGYPSDPELIFLTDGASKGVMQILNCVIRGNGDGILVPVPQYPLYSATISLLGGTLVPYYLDESENWGLDVANLRQSVAQARSQGITVRAMVIINPGNPTGQCLSEANIREILKFCYNEKLVLLGDEVYQQNIYQDERPFISSKKVLMEMGSPFSKEVQLVSFHTVSKGYWGECGQRGGYFEMTNLPPRVVEEIYKVASIALSPNVSAQIFMGLMVNPPKPGDISYDQFARESKGILESLRRRARLMTDGFNSCKNVVCNFTEGAMYSFPQIRLPTGALQAAKQAGKVPDVFYCLKLLEATGISTVPGSGFGQKEGVFHLRTTILPAEDEMPEIMDSFKKFNDEFMTQYDNNFGYSKM
B1: the Km in data set [1] was determined as 330 ± 30 µM.

B2: BhcA (Paracoccus denitrificans PD1222) (protein)
chain: MTSQNPIFIPGPTNIPEEMRKAVDMPTIDHRSPVFGRMLHPALEGVKKVLKTTQAQVFLFPSTGTGGWETAITNTLSPGDKVLAARNGMFSHRWIDMCQRHGLDVTFVETPWGEGVPADRFEEILTADKGHEIRVVLATHNETATGVKSDIAAVRRALDAAKHPALLFVDGVSSIGSMDFRMDEWGVDIAVTGSQKGFMLPPGLAIVGFSPKAMEAVETARLPRTFFDIRDMATGYARNGYPYTPPVGLINGLNASCERILAEGLENVFARHHRIASGVRAAVDAWGLKLCAVRPELYSDSVSAIRVPEGFDANLIVSHALETYDMAFGTGLGQVAGKVFRIGHLGSLTDAMALSGIATAEMVMADLGLPIQLGSGVAAAQEHYRQTTAAAQKKAA
As for B2, the figures for the Km in data set [1] and in data set [2] were 140 ± 20 µM and 190 ± 20 µM, respectively.
